Results reported in US7521230B2, “Nucleic acid encoding a Brain Derived Tau Kinase polypeptide and methods of use thereof” (Board of Regents of the University of Nebraska, priority 2002, dated 2009).
One block for each molecule: values may come before it.

Experiments:
GSK-3beta = GSK-3beta (Homo sapiens, UniProt P49841); details: cited from earlier work
CDK-5 = CDK-5 (Homo sapiens, UniProt Q00535); details: cited from earlier work
[1] = tested on: BDTK promoter (CpG1.2-luciferase) in HEK 293 cells; assay: CpG1.2-luciferase BDTK promoter reporter assay in HEK293 cells; assay type: cell-based, human; details: A-beta 1-42 0-30 μg/ml, 24 hours
Description: A luciferase assay was used to determine promoter activity. To conduct this assay, 1.2 kb and 0.6 kb promoter sequence were inserted into pGL3-control vector (Promega, named as CpG1.2 and CpG0.6, respectively). The luciferase constructs were co-transfected with reference reporter gene (thymidine kinase promoter TK-RL plasmid, Promega) into PC12 and HEK293 cells using lipofection method (GenePorter, Gene Therapy Systems, Inc.). At 48 hours after DNA transfection, each luciferase activity was measured using Dua1-luciferase kit (Promega). […] CpG1.2-luciferase vector was tested for its promoter activity by increasing dose of extracellular beta-amyloid peptide (A-beta) 1-42 (0-30 μg/ml) for 24 hours. CpG1.2 luciferase activities (PC12-CpG or HEK-CpG) are 8- to 10-fold higher than control activities (PC12-control or HEK293-control) without beta-amyloid stimulation.

BDTK [2] = molecular target: T1, BDTK (Homo sapiens, UniProt Q5TCY1); assay: BDTK-mediated tau phosphorylation in vitro; assay type: biochemical
T1 construct: made in house
T1 sequence (Q5TCY1 38-319): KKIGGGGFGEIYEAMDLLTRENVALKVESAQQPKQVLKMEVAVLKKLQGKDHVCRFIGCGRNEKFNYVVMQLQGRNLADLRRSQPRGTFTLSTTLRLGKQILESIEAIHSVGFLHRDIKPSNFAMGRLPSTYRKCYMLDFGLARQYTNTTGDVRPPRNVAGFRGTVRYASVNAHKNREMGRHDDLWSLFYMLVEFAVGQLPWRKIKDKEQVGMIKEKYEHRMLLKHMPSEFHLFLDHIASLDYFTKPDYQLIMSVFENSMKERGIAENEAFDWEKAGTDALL

BDTK [3] = molecular target: T1, BDTK; assay: BDTK phosphorylation (autophosphorylation) in vitro; assay type: biochemical
Description: Purified recombinant human tau (Calbiochem) was phosphorylated by purified BDTK(38-319) and BDTK(52-319) in vitro. Briefly, 1 μg of tau protein and 1 μg of BDTK mutants were incubated in buffer A (50 mM Tris-Cl, pH 7.5, 5mM Mg acetate, 1 mM EDTA, 1 mM DTT, 0.1 mM ATP, 2 μCi [γ-^32P]ATP) or buffer B (100 mM Mes-Na, pH 6.5, 5 mM Mg acetate, 1 mM EGTA, 1 mM DTT, 0.2 mM ATP, and 2 μCi[γ-^32P]ATP). The reaction was stopped at 30, 60, 120, and 180 minutes by addition of Laemmli sampling buffer. Samples were then subjected to SDS-PAGE and autoradiography.
An assay was conducted to identify promoters and inhibitors of BDTK activity. BDTK peptides may be used to inhibit BDTK activity. Two synthetic peptides (N21: […] (SEQ ID NO:21) and AA21: […]) (SEQ ID NO:22) are synthesized to test if N21 and A21, where conserved two glycine residues are substituted with alanine, has inhibitory effect of BDTK kinase activity in vitro. Increasing amounts of peptides (0-1 mM) were tested for BDTK and tau phosphorylation, in vitro. […] AA21 mutated peptide increased both BDTK (AA21-BDTK, from 30 to 300 μM) and tau phosphorylation (AA21-tau, from 30 μM to […]) in dose response manner.

GSK-3beta, sequence (P49841 whole entry, species assumed): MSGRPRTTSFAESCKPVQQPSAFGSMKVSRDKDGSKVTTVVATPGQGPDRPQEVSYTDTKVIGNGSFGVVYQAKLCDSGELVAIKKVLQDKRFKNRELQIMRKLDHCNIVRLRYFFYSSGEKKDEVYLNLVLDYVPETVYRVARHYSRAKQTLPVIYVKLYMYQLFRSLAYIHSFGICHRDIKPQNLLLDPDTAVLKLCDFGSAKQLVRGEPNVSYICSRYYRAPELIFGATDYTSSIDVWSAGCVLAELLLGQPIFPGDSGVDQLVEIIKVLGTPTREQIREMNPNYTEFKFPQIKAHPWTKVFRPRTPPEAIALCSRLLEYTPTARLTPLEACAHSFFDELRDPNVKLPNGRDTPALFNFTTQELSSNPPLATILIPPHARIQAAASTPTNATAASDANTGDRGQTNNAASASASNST
CDK-5, sequence (Q00535 whole entry, species assumed): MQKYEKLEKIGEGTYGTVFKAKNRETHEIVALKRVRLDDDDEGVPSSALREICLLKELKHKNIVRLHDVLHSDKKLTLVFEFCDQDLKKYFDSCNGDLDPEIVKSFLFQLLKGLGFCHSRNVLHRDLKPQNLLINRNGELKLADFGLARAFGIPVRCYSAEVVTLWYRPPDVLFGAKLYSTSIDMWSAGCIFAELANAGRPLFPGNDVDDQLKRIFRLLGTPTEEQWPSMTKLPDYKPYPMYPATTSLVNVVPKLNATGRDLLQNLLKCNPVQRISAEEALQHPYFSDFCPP
CDK-5, sequence (Q15078 whole entry partner, species assumed): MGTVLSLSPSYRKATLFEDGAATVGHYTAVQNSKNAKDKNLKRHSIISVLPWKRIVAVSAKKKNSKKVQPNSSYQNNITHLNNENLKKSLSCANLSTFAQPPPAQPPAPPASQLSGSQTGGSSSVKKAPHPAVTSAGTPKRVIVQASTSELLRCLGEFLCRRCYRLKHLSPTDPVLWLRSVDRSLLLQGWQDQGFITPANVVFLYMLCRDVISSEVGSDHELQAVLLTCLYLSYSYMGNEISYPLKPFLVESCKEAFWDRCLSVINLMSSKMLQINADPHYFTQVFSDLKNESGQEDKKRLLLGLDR

Molecule: CC(C)[C@H](CO)Nc1nc(Nc2cccc(Cl)c2)c2ncn(C(C)C)c2n1 [puralanol A]
IC50 (GSK-3beta): 13 µM
IC50 (CDK-5): 0.075 µM

Molecule: Beta-amyloid: extracellular beta-amyloid peptide (A-beta) 1-42
effect on CpG1.2-luciferase activity [1]: weakly stimulated

effect on tau phosphorylation (N21-tau) (BDTK [2]; peptide from 300 μM to 1 μM): partially inhibited
inhibition of BDTK phosphorylation (BDTK [3]; peptide 100 μM-1 mM): up to 70%
Molecule: KDRWKVVKKIGGGGFGEIYEA [N21]

effect on tau phosphorylation (AA21-tau) (BDTK [2]; peptide from 30 μM to 1 μM, dose response manner): increased
effect on BDTK phosphorylation (AA21-BDTK) (BDTK [3]; peptide from 30 to 300 μM, dose response manner): increased
Molecule: KDRWKVWKKIAGAGFGEIYEA [AA21]
